Assay [1] has as its target T1, full length androgen receptor (human, UniProt P10275 1-920).
T1 construct: Full length AR expressed inside transfected cells (intracellular, not on the surface); also called AR; full length AR
T1 sequence: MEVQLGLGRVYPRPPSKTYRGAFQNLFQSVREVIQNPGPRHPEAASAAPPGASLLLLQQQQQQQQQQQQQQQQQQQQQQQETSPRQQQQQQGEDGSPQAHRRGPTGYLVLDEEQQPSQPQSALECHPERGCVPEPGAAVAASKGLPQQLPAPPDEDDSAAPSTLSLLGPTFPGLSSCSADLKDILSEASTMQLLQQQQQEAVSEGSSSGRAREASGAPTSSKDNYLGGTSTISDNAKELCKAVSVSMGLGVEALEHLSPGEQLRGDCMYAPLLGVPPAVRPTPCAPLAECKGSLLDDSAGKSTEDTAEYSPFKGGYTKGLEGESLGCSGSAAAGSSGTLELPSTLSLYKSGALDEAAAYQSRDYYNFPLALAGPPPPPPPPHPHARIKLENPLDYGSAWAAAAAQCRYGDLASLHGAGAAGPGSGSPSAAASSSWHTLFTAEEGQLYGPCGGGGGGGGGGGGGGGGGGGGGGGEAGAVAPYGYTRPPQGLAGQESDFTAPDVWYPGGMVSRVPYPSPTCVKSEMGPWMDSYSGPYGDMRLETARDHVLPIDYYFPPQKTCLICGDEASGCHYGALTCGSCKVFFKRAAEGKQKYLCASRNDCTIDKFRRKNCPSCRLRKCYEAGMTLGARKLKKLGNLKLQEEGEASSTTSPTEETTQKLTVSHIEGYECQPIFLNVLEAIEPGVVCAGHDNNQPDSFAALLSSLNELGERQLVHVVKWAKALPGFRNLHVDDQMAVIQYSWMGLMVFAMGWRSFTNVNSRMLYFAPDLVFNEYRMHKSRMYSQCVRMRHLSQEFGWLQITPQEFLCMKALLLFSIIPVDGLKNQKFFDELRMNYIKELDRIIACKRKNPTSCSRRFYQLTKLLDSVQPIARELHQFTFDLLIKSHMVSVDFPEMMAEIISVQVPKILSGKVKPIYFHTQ
Description: not described.

A further assay concerns the target T2, progesterone receptor (UniProt P06401 1-933, limits assumed).
T2 construct: The assay and the construct are not described; also called a related receptor, the progesterone receptor
T2 sequence (looked up): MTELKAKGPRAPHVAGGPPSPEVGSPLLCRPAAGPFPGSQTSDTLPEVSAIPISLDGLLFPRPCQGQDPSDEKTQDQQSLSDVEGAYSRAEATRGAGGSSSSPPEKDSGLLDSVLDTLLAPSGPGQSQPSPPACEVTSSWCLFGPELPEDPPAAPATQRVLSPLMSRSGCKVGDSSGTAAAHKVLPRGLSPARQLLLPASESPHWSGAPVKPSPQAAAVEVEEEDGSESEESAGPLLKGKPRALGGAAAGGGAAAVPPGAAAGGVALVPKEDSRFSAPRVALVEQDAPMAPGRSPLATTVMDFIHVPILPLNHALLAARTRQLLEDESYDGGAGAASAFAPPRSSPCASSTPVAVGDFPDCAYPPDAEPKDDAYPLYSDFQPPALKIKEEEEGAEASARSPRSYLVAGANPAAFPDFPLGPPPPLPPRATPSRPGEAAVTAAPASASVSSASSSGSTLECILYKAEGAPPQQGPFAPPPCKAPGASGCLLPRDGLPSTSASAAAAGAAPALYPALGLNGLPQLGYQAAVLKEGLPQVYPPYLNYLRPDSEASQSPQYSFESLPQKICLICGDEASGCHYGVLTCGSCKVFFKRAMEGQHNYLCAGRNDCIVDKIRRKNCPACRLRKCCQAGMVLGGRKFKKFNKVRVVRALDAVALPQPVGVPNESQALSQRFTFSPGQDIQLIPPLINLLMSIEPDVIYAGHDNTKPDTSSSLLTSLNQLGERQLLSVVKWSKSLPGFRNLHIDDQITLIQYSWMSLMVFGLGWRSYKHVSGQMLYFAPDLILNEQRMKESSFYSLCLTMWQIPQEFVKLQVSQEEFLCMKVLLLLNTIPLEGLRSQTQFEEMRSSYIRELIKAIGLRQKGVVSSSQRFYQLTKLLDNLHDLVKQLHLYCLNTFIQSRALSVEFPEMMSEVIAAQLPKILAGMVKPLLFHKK
Description: not described.

B1: SRCdp100: Amino acids 1050-1150 of SRC-1 (peptide)
peptide: MAPNQLRLQLQQRLQGQQQLIHQNRQAILNQFAATAPVGINMRSGMQQQITPQPPLNAQMLAQRQRELYSQQHRQRQLIQQQRAMLMRQQSFGNNLPPSSGL
notes: Expressed in cells from a transfected plasmid; also called SRCdp(P100); SRC derived peptide
As for B1, the binding result in assay [1] was “binds”; in the assay with progesterone receptor it was “no binding”.

B2: SRCdp200: Amino acids 1050-1240 of SRC-1 (peptide)
peptide: MAPNQLRLQLQQRLQGQQQLIHQNRQAILNQFAATAPVGINMRSGMQQQITPQPPLNAQMLAQRQRELYSQQHRQRQLIQQQRAMLMRQQSFGNNLPPSSGLPVQMGNPRLPQGAPQQFPYPPNYGTNPGTPPASTSPFSQLAANPEASLANRNSMVSRGMTGNIGGQFGTGINPQMQQNVFQYPGAGMVPQ
notes: Expressed in cells from a transfected plasmid; also called SRC derived peptide; 200 amino acid fragment
For B2, the binding result in assay [1] is “binds”; with progesterone receptor it was “no binding”.
